From article PMC5542402
Read-outs that look alike come from different tables or passages of the source.

B1: sel36m (dsDNA)
DNA 1: GATTCACAGCTGATACACAGGATCTAG
DNA 2: CTAGATCCTGTGTATCAGCTGTGAATC
B2: sel36 (dsDNA)
DNA 1: GATTCACAGCTGATTCACAGCATCTAG
DNA 2: CTAGATGCTGTGAATCAGCTGTGAATC

Legend:
[1] = molecular target: T1, PhoP (Mycobacterium tuberculosis, UniProt P71814 1-247); experiment: ITC
[2] = molecular target: T1, PhoP; experiment: ITC; remark: listed apart in the source

Row | Binder | Kd [1] [nM] | Kd [2] [nM]
1 | B1 | 32.3 ± 4.12 | 
2 | B2 |  | 8.03 ± 3.42
